Holding throughout (assay): ITC; VAMP7 longin domain (1.4 ml, 0.15-0.2 mM) in the cell, Hrb at 1.5-2 mM titrated in 30-40 injections of 4-8 μl; all GST tags removed
Common to all, as to conditions: both partners purified

Test [1] concerns the target T1, Hrb(1-176) His6 (human, UniProt P52594-1 1-176).
T1 construct: human Hrb, residues 1-176; also called residues 1–176 of Hrb; source: E. coli BL21(DE3)/pLysS, purified (Ni-NTA-agarose); not shown: His6, C-terminal, kept
T1 sequence (looked up): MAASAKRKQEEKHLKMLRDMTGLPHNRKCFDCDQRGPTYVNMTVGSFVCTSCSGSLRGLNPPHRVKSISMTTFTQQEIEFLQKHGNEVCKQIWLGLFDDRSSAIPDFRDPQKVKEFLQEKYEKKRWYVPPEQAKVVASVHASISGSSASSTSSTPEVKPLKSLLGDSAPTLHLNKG

The target in test [2] is T2, Hrb(1-176) His6 L160S/L163S (human, UniProt P52594-1 1-176, L160S | L163S).
T2 construct: human Hrb, residues 1-176, with L160S and L163S; source: E. coli BL21(DE3)/pLysS, purified (Ni-NTA-agarose); not shown: His6, C-terminal, kept
T2 sequence (looked up): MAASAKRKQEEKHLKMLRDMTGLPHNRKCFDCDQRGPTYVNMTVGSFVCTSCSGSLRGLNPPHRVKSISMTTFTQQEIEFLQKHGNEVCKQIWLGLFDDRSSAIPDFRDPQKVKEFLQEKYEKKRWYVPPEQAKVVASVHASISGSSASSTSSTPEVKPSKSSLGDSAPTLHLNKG

Test [3] deals with T3, Hrb(1-176) His6 L163P/L164P (human, UniProt P52594-1 1-176, L163P | L164P).
T3 construct: human Hrb, residues 1-176, with L163P and L164P; source: E. coli BL21(DE3)/pLysS, purified (Ni-NTA-agarose); not shown: His6, C-terminal, kept
T3 sequence (looked up): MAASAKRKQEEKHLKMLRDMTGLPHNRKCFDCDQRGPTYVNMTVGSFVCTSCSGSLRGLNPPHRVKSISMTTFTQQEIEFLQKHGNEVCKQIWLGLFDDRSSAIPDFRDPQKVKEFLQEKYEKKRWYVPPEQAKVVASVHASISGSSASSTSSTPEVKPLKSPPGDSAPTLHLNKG

Test [4] has as its target T4, Hrb(1-176) His6 L171S/L173S (human, UniProt P52594-1 1-176, L171S | L173S).
T4 construct: human Hrb, residues 1-176, with L171S and L173S; source: E. coli BL21(DE3)/pLysS, purified (Ni-NTA-agarose); not shown: His6, C-terminal, kept
T4 sequence (looked up): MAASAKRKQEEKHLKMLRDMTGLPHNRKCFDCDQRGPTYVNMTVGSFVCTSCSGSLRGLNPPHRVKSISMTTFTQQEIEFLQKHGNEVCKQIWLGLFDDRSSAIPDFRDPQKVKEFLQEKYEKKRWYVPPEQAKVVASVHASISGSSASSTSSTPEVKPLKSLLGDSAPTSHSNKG

B1: VAMP7 longin domain L43S/Y45S, GST tag removed (domain or fragment, mouse, UniProt P70280 1-120, looked up)
chain: MAILFAVVARGTTILAKHAWCGGNFLEVTEQILAKIPSENNKSTSSHGNYLFHYICQDRIVYLCITDDDFERSRAFSFLNEVKKRFQTTYGSRAQTALPYAMNSEFSSVLAAQLKHHSEN
notes: VAMP7 longin domain with L43S and Y45S; limits as the parent GST-VAMP7 longin domain (mouse 1-120 by the antibody paragraph); Used in ITC; source: E. coli BL21(DE3)/pLysS, purified, GST removed with thrombin; not shown: GST, N-terminal, cleaved
One may read the Kd as a measure of binding affinity in units of concentration. A low value points to a tighter complex. B1 displayed a Kd in test [1] of more than 300 µM.

B2: VAMP7 longin domain, GST tag removed (domain or fragment, mouse, UniProt P70280 1-120, looked up)
chain: MAILFAVVARGTTILAKHAWCGGNFLEVTEQILAKIPSENNKLTYSHGNYLFHYICQDRIVYLCITDDDFERSRAFSFLNEVKKRFQTTYGSRAQTALPYAMNSEFSSVLAAQLKHHSEN
notes: VAMP7 longin domain; GST-VAMP7 longin domain is described as mouse VAMP7 amino acids 1-120 in the antibody paragraph; also called VAMP7 LD; source: E. coli BL21(DE3)/pLysS, purified, GST removed with thrombin; not shown: GST, N-terminal, cleaved
On to B2, for which the Kd is more than 300 µM in test [2], more than 300 µM in test [3], 10.5 µM in test [1] and more than 300 µM in test [4].

Source of the values: article PMC2648964, “Molecular Basis for the Sorting of the SNARE VAMP7 into Endocytic Clathrin-Coated Vesicles by the ArfGAP Hrb” (Cell, 2008).
